The series can be described thus: yeast display, Sf9 membrane polyspecificity reagent, FACS + sequencing; frameworks hold sequencing errors. In outline:
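Synthetic nanobody libraries on Saccharomyces cerevisiae BJ5465 were galactose-induced for 36–48 hours, stained 1 hour at 4 °C with 10% biotinylated, detergent-solubilized Sf9 membrane reagent and enriched on streptavidin microbeads. FACS then separated cells into low and high (top ~1%) gates by anti-HA (expression) and streptavidin (reagent binding) fluorescence. Genes were colony-PCR amplified, MiSeq 2 × 250 sequenced and CDR-length filtered. A clone's polyreactivity label is that of its gate of origin.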
As for “QVQLVESVGGLVQAGGSLRLSCAASGRTFAGNAMGWYRQAPGKEREFVASITASGVNTYYADSVKGRFTISRDNAKNTVYLQMNSLKPEDTAVYYCNKRNRWTPFYTYDYWGQGTQVTVSS”, the “polyreactivity (PSR sort gate)” value is recorded as “low polyreactivity”.

For “QVQLVESVGGLVQAGGSLRLSCAASGRTFAYYTMGWYRQAPGKERELVARISGYGGSTYYADSVKGRFTISRDNAKNTVYLQMNSLKPEDTAVYYCNVVGAYYRYDYWGQGTQVTVSS”, the “polyreactivity (PSR sort gate)” value is on record as “high polyreactivity”.

On to “QVQLVESVGGLVQAGGSLRLSCAASGRTFFPYAMGWYRQAPGKEREFVAAITKTDDSTYYADSVKGRFTISRDNAKNTVYLQMNSLKPEDTAVYYCNAGDTQIRFYYWGQGTQVTVSS”, for which the “polyreactivity (PSR sort gate)” value was “low polyreactivity”.

Turning to “QVQLVESVGGLVQAGGSLRLSCAASGRTFFYNAMGWYRQAPGKERELVAAIDWSGDSTYYADSVKGRFTISRDNAKNTVYLQMNSLKPEDTAVYYCAARRKNRRDYDYYYWGQGTQVTVSS”, the “polyreactivity (PSR sort gate)” value is listed as “high polyreactivity”.

Regarding “QVQLVESVGGLVQAGGSLRLSCAASGRTFGTYAMGWYRQAPGKERELVAAISTRGGRTFYADSVKGRFTISRDNAKNTVYLQMNSLKPEDTAVYYCAKGVFTWGVFRVGIRDDYWGQGTQVTVSS”, the “polyreactivity (PSR sort gate)” value is listed as “high polyreactivity”.

With “QVQLVESVGGLVQAGGSLRLSCAASGRTFHYYVMGWYRQEPGKEGELVAAISRSGGNTYYADSVKGRFTISRDNAQNTVYLQMNSLKPEDTADYYCAAALSAYVKWDYYYWGQGTQVTVSS”, the “polyreactivity (PSR sort gate)” value is “high polyreactivity”.

Regarding “QVQLVESVGGLVQAGGSLRLSCAASGRTFLYYTMGWYRQAPGKERELVAAISTSGGSTNYADSVKGRFTISRDNAKNTVYLQMNSLKPEDTAVYYCAAETSTNPEAYEYWGQGTQVTVSS”, the “polyreactivity (PSR sort gate)” value is on record as “low polyreactivity”.

As to “QVQLVESVGGLVQAGGSLRLSCAASGRTFSFYAMGRYRQRQGKESELVAGIDGNDGSTYYADSVKGRFTISRDNAKNTVYIQMNSLKPEDTAVYYCNAEKWTGQYCCYYRMYYYWGQGTQVTVSS”, the “polyreactivity (PSR sort gate)” value is given as “low polyreactivity”.

Consider “QVQLVESVGGLVQAGGSLRLSCAASGRTFSVYTMGWYRQAPGKERELVASINWSGGRTYYADSVKGRFTISRDNAKNTVYLQMNSLKPEDTAVYYCAATGWRTLYDYWGQGTLVTVSS”, for which the “polyreactivity (PSR sort gate)” value is reported as “high polyreactivity”.

With “QVQLVESVGGLVQAGGSLRLSCAASGRTLSYYAMGRYRQAPGKVRELVAAISRRGGSTYYADSVKGRFTISRDKAKNTVYLQMNCLQSKDTAFYYCAATVGNAADYDYGYWGQGTQVTVSS”, the “polyreactivity (PSR sort gate)” value is reported as “high polyreactivity”.

For “QVQLVESVGGLVQAGGSLRLSCAASGSIFDSYAMGWYRQAPGKERELVADISSGGSTYYADSVKGRFTISRDNAKNTVYLQMNSLKPEDTAVYYCAAQYVYYFYGDEAFTDDYWGQGTQVTVSS”, the “polyreactivity (PSR sort gate)” value is reported as “low polyreactivity”.

On to “QVQLVESVGGLVQAGGSLRLSCAASGSIFGYNAMGWYRQAPGKERELVAVINASGASTYYADSVKGRFTISRDNAKNTVYLQMNSLKPEDTAVYYCAKDPFPFPGGDDWGQGTQVTVSS”, for which the “polyreactivity (PSR sort gate)” value is reported as “low polyreactivity”.

In the case of “QVQLVESVGGLVQAGGSLRLSCAASGSIFGYYAMGWYRQAPGKDRELVAGINWSGGSTYADSVKGRFTISRDNAKNTVYIQMNSLKPEDTAVYYCNRRYRKDSSAKYDYWGQGTQVTVSS”, the “polyreactivity (PSR sort gate)” value was “high polyreactivity”.

As for “QVQLVESVGGLVQAGGSLRLSCAASGSIFSVNAMGWYRQAPGKERELVASINFRGGRTYYADSVKGRFTISRDNAKNTVYLQMNSLKPEDTAVYYCAAVITQTDTGYGPSFRVYYWGQGTQVTVSS”, the “polyreactivity (PSR sort gate)” value is “high polyreactivity”.

For the sequence “QVQLVESVGGLVQAGGSLRLSCAASGSIFWFYAMGWYRQAPGKVRELVAAITSTGGTYYADSVKGRFTISRDNAKNTVYLQMNSLKPEDTSVYYCAADRFGVQGAYLYDYWGQGTQVTVSS”, the “polyreactivity (PSR sort gate)” value is “low polyreactivity”.

For the sequence “QVQLVESVGGLVQAGGSLRLSCAASGSTFAGNAMGWSRQAPGKERELVAAIDSSTGSTYYADSVKGRFTISRDNAKNTVYLQMNSLKPEDTSVYYSNKTSFLVKLDYWGHGTQVTVSS”, the “polyreactivity (PSR sort gate)” value is recorded as “low polyreactivity”.

The values above are taken from the nanobody polyreactivity screen of Harvey et al. (2022).
